According to paper PMC3569449:

Assays:
[1] = biological target: N-terminal cytoplasmic domain of the a1 isoform of subunit a of human V-ATPase (residues 1-353) (human) (UniProt Q93050); test: SPR; Biacore T100; C1, H or a1NT amine-coupled to CM5; 20 mM HEPES-NaOH, 300 mM NaCl, 1 mM DTT, 0.05% P20, pH 7.5, 10°C; KD from steady-state Req against analyte concentration, 1:1 Langmuir isotherm
[2] = biological target: Human V-ATPase subunit H (non-tagged) (human) (UniProt Q9UI12); test: as above
[3] = biological target: Human V-ATPase subunit C1 (human) (UniProt P21283); test: SPR; C1 immobilised on CM5; response at 10 µM analyte (E1G1, a1NT, or both together)
[4] = biological target: Human V-ATPase subunit C1 (human) (UniProt P21283); test: SPR; Biacore T100; C1, H or a1NT amine-coupled to CM5; 20 mM HEPES-NaOH, 300 mM NaCl, 1 mM DTT, 0.05% P20, pH 7.5, 10°C; KD from steady-state Req against analyte concentration, 1:1 Langmuir isotherm
[5] = biological target: V-ATPase a NT (Saccharomyces cerevisiae) (UniProt P32563); test: ITC; conditions: cited from earlier work
Sequence of V-ATPase a NT (Saccharomyces cerevisiae) (P32563 104-372): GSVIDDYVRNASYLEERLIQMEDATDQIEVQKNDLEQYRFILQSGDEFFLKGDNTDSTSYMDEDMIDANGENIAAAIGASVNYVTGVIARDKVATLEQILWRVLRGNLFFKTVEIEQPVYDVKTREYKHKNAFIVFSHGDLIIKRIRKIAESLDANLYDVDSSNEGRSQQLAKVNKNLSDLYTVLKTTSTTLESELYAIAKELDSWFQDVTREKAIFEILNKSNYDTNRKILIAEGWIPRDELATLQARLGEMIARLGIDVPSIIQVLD

Sequence of Human V-ATPase subunit H (non-tagged) (human) (Q9UI12 whole entry): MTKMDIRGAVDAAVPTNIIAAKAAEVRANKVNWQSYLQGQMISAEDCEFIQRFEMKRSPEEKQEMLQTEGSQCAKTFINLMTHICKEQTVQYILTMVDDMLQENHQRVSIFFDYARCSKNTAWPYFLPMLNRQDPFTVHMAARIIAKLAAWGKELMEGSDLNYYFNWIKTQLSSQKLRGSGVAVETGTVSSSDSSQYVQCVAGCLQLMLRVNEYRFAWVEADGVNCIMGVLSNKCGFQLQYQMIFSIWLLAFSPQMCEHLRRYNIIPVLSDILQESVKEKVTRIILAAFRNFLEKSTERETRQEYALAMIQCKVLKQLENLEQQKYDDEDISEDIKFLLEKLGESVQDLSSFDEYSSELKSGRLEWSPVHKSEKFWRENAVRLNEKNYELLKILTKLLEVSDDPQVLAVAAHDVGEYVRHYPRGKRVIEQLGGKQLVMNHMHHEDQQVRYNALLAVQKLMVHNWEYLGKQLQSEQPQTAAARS
Sequence of Human V-ATPase subunit C1 (human) (P21283 whole entry): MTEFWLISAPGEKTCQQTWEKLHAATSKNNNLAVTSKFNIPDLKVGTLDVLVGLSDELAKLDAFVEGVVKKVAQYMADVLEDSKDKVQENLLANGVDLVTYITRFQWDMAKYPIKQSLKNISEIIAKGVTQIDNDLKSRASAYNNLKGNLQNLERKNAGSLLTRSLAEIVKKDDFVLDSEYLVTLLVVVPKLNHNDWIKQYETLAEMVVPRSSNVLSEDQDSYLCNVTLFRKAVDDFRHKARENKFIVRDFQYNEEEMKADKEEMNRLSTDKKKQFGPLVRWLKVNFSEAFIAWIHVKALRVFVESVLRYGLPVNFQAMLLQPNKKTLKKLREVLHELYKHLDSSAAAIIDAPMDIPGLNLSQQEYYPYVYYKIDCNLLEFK
Sequence of V-ATPase EG (P22203 2-233): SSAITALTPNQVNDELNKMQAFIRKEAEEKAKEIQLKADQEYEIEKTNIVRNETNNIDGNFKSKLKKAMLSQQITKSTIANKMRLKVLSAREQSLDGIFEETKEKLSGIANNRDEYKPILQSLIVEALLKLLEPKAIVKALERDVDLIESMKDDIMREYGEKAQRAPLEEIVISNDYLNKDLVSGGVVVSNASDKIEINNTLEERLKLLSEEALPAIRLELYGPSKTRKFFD
Sequence of V-ATPase EG (P48836 2-114, further chain): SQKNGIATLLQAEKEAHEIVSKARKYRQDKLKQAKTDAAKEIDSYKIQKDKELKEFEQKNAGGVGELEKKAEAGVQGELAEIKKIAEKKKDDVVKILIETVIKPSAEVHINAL
Sequence of N-terminal cytoplasmic domain of the a1 isoform of subunit a of human V-ATPase (residues 1-353) (human) (Q93050 1-353): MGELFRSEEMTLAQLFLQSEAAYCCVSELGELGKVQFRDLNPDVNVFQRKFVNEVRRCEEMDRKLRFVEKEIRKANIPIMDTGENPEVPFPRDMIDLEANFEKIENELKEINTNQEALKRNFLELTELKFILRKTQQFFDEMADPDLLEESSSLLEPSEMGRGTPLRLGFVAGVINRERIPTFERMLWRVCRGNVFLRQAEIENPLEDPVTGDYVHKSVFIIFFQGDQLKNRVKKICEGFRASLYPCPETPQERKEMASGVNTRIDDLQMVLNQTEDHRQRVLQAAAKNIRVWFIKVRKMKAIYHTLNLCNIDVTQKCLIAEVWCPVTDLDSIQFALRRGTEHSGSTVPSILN
Sequence of V-ATPase C foot (P31412 2-157): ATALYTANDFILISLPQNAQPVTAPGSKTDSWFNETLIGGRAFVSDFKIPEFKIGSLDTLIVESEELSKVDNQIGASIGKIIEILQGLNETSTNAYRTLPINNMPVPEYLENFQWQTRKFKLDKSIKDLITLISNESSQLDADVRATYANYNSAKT
Sequence of V-ATPase C foot (P31412 278-392): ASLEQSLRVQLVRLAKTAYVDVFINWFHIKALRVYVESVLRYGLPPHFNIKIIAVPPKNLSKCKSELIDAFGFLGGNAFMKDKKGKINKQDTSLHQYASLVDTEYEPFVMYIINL

Kd [2] [nM]	Substance	Kd [5] [nM]	also measured
1400	Human V-ATPase subunit C1 (from UniProt P21283 1-382) (natural protein)	–	–
360	N-terminal cytoplasmic domain of the a1 isoform of subunit a of human V-ATPase (residues 1-353) (from UniProt Q93050 1-353) (domain or fragment)	–	response at 10 µM analyte [3]: 45 RU; Kd [4]: 3000 nM

Continued, substance first:

Substance	Kd [2] [nM]	Kd [5] [nM]	also measured
E1G1 heterodimer of human V-ATPase (subunits E1 and G1, co-expressed and co-purified) (from UniProt P36543 1-226; O75348 1-118) (complex)	–	–	Kd [1]: 210 nM
V-ATPase C foot (from UniProt P31412)	–	22000	–
V-ATPase EG (from UniProt P22203)	–	33000	–
